{"source": "paper doi:10.1101/2025.08.25.672131", "about": "“A basic leucine zipper uses a dimer pathway to locate its targets in DNA mixtures”", "key": {"CREB-bZIP-ΔLZ": {"target": "T1, CREB-bZIP-ΔLZ (human, UniProt P16220-1 277-315, C300S;C310S)", "T1 chain": "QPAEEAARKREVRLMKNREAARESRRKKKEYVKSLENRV", "assay": "fluorescence anisotropy; monomer; Stopped-flow at 25 C; assay buffer not stated in the material (protein storage: 10 mM MES pH 6.5 or, for the forced-monomer bZIP-ΔLZ prep, 10 mM HEPES pH 7.4, with 150 mM NaCl, 10 mM MgCl2; 0.05% Tween-20 in the MES buffer)", "settings": "protein: recombinant; tags: N-terminal G left after TEV cleavage; label: 5' Alexa Fluor 488; blunt"}, "Jun bZIP-ΔLZ": {"target": "T2, Jun bZIP-ΔLZ (human, UniProt P05412 246-284)", "T2 chain": "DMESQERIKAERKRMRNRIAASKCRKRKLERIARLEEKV", "assay": "fluorescence anisotropy; monomer; Stopped-flow at 25 C; assay buffer not stated in the material (protein storage: 10 mM MES pH 6.5 or, for the forced-monomer bZIP-ΔLZ prep, 10 mM HEPES pH 7.4, with 150 mM NaCl, 10 mM MgCl2; 0.05% Tween-20 in the MES buffer)", "settings": "protein: recombinant; tags: N-terminal G left after TEV cleavage; label: 5' Alexa Fluor 488; blunt"}}}
{"binder": "Alexa Fluor 488-Comp (dsDNA) DNA 1: GGCTAAAGCATTCT DNA 2: AGAATGCTTTAGCC", "values": [{"measurement": "Kd", "setting": "CREB-bZIP-ΔLZ", "value": "440 ± 30", "unit": "µM"}]}
{"binder": "Alexa Fluor 488 target for Jun, JunD, Fos (dsDNA) DNA 1: GGATGAGTCATTGG DNA 2: CCAATGACTCATCC", "values": [{"measurement": "Kd", "setting": "Jun bZIP-ΔLZ", "value": "0.22 ± 0.03", "unit": "µM"}]}
